Results taken from patent US20040260068A1 (published 2004).

How the values were obtained:
[1] = target: T1, recombinant soluble human L-selectin (human, UniProt P14151 39-332); experiment: competition ELISA on coated soluble human L-selectin; competitor of biotinylated ChD3
T1 construct: extracellular domain; The residue numbers 1-279 count on the mature protein, not on the precursor
T1 sequence (looked up): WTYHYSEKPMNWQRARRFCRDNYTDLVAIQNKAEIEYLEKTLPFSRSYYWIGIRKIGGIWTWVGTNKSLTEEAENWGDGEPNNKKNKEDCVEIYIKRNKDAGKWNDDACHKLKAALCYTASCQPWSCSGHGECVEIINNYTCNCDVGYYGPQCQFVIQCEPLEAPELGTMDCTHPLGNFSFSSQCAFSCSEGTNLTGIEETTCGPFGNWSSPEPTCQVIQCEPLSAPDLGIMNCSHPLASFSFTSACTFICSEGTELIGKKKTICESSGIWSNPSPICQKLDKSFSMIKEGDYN
Experimental: ELISA plates were coated with 0.25 μg/ml soluble human L-selectin in 0.2 M sodium carbonate buffer (pH 9.4) and blocked with SuperBlock blocking buffer (Pierce). […] As controls, humanized anti-human L-selectin monoclonal antibody HuDREG55 (Co et al., Immunotechol. 4:253-266 (1999)) and humanized anti-human HLA-DR monoclonal antibody Hu1D10 (Kostelny et al., Int. J. Cancer 93:556-565 (2001)) were used. ELISA plates were incubated at room temperature for 2 hr. After washing the wells with Washing Buffer (PBS containing 0.1% Tween 20), 100 μl of 1 μg/ml HRP-conjugated streptavidin (Pierce) in ELISA buffer was added to each well. ELISA plates were incubated at room temperature for 60 min and washed with Washing Buffer. For color development, 100 μl/well of ABTS substrate was added. Color development was stopped by adding 100 μl/well of 2% oxalic acid. Absorbance was read at 415 nm.

[2] = target: T2, human P-selectin on CHO-K1 transfectant cells (human, UniProt P16109 42-830); experiment: flow cytometry on CHO-K1 transfectants
T2 construct: whole, on cells; also called CHO-P selectin
T2 sequence (looked up): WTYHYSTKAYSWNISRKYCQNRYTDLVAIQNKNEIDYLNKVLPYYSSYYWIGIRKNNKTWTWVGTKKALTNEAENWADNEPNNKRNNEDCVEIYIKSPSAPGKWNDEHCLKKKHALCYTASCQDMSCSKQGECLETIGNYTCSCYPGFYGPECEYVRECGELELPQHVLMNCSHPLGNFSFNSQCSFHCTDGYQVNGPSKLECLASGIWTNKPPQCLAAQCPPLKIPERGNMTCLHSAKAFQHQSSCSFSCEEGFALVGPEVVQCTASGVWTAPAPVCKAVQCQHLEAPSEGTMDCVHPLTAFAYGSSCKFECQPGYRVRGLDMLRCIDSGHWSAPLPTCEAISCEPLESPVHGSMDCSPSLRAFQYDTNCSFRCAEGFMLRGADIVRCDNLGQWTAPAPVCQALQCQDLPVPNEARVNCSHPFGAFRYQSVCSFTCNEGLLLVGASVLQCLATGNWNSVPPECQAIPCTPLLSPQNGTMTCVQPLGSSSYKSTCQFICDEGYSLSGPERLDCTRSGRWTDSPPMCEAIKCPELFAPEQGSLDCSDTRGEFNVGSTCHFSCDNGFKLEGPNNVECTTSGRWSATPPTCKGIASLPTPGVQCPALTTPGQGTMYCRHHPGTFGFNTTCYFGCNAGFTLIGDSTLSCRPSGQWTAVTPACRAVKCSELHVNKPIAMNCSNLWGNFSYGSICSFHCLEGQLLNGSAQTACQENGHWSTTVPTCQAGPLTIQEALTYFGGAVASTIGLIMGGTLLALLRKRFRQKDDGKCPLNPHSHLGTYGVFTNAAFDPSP
Experimental: (§1) 2×10⁵ cells were incubated on ice for 30 minutes in FACS buffer (PBS containing 1% bovine serum albumin and 0.2% sodium azide) with 1 μg of test antibody or buffer alone. After incubation, cells were washed three times with FACS buffer and subsequently incubated for another 30 minutes with PE-conjugated donkey anti-human IgG F(ab′)2 fragment (Jackson ImmunoResearch). After washing three times with FACS buffer, relative cell fluorescence was analyzed by flow cytometry using a Cyan (DAKOCytomation).

[3] = target: T3, human E-selectin on CHO-K1 transfectant cells (human, UniProt P16581 22-610); experiment: flow cytometry on CHO-K1 transfectants
T3 construct: whole, on cells; also called CHO-E Selectin; CHO-E selectin
T3 sequence (looked up): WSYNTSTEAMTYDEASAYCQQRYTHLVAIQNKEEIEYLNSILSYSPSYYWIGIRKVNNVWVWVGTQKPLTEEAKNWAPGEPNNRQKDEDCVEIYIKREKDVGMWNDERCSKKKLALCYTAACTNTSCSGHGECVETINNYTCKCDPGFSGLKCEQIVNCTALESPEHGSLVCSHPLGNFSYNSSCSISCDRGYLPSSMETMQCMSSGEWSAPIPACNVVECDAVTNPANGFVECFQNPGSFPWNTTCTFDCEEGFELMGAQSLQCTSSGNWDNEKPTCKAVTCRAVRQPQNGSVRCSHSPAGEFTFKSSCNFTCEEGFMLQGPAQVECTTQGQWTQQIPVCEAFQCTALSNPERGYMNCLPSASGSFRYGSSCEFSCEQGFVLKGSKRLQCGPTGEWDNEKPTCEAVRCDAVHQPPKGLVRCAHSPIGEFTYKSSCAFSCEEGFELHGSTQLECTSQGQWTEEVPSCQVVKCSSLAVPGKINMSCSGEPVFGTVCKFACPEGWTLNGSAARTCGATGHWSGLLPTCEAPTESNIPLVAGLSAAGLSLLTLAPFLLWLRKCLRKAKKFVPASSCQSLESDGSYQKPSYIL
Experimental: as §1

[4] = target: T2, human P-selectin on CHO-K1 transfectant …; experiment: flow cytometry on CHO-K1 transfectants; panel H read as CHO-P selectin
Experimental: as §1

B1: humanized anti-L-selectin antibody D3 (antibody, V domains shown)
VH: EVQLLESGGGLVQPGGSLRLSCAASGFSIGSYNMHWVRQAPGKGLEWVAGISGAGSRTAWYGAAVKGRATISRDNAKNTVYLQMNSLRAEDTAVYYCAKDYGGSGSPWYGWGAASWIDAWGQGTLVTVSS
VL: SSELTQDPAVSVALGQTVRITCSGGSYYGWYQQKPGQAPVTVIYDNDKRPSDIPSRFSGSKSGSTGSLTITGAQAEDEADYYCGSADSAYVGIFGGGTKLTVL
notes: Transiently expressed in 293-H cells; also called HuD3; humanized D3
With B1 the IC50 [1] was 2.9 µg/mL, the binding result [2] was “no binding (tested: 1 µg of test antibody)” and the binding result [3] was “no binding (tested: 1 µg of test antibody)”.

B2: chicken-human chimeric anti-L-selectin antibody D3 (antibody, V domains shown)
VH: AVTLDESGGGLQTPGGALSLVCRASGFSIGSYNMHWVRQAPGKGLEWVAGISGAGSRTAWYGAAVKGRATISRDNGQSTVRLQLNNLRAEDTGTYYCAKDYGGSGSPWYGWGAASWIDAWGHGTEVIVSS
VL: ALTQPASVSANPGETVKITCSGGSYYGWYQQKSPGSAPVTVIYDNDKRPSDIPSRFSGSKSGSTGTLTITGVQAEDEAVYFCGSADSAYVGIFGAGTTLTVL
notes: Transiently expressed in 293-H cells; also called ChD3; chimeric D3
With B2 the binding result [4] was “no binding (tested: 1 µg of test antibody)”, the IC50 [1] was 3.4 µg/mL and the binding result [3] was “no binding (tested: 1 µg of test antibody)”.
